Tests used:
huZIP12-ECD-GST [1] = molecular target: T1, huZIP12-ECD-GST (human, UniProt Q504Y0 24-202); test: SPR single cycle kinetics (Biacore): mAb captured on protein A, ZIP12-ECD-GST injected; average data
T1 construct: also called hZIP12-ECD-GST; human ZIP12-ECD-GST; not shown: glutathione S-transferase (GST) tag

[2] = molecular target: T2, cynomolgus monkey ZIP12-ECD-GST (cynomolgus monkey, UniProt Q95KA5 24-207); test: as above
T2 construct: extracellular domain; also called cyno ZIP12 fusion protein; cynomolgus monkey ZIP12-GST-ECD; not shown: glutathione S-transferase (GST) tag
T2 sequence (Q95KA5 24-207): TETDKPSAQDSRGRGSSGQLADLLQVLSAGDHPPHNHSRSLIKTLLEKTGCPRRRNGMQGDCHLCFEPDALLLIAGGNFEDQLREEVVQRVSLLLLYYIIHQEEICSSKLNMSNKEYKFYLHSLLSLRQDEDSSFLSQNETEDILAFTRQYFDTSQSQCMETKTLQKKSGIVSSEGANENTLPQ

huZIP12-ECD-GST [3] = molecular target: T1, huZIP12-ECD-GST; test: SPR single cycle kinetics (Biacore): mAb captured on protein A, huZIP12-ECD-GST injected at 3.12-800 nM
Procedure: (§1) Single Cycle Kinetics (SCK) involves first capturing the mAb onto the protein A sensor surface and then sequentially injecting a series of concentrations of huZIP12-ECD-GST over the surface starting at the lowest concentration and ending with the highest concentration. The final concentration is followed by a dissociation phase where buffer only is passed across the surface followed by regeneration, where the remaining bound huZIP12-ECD-GST is removed from the surface by injection of a 10 mM Glycine pH 1.5 and 50 mM NaOH solution. The SCK is repeated for each monoclonal antibody providing duplicate data and the kinetics of each interaction is evaluated by the Biacore software.
(§2) Referring to FIG. 6, there are shown the kinetic parameters obtained for all antibody variants when screened with the 3.12 nM to 800 nM huZIP12-ECD-GST. […] Affinity.

huZIP12-ECD-GST [4] = molecular target: T1, huZIP12-ECD-GST; test: SPR single cycle kinetics, mAb captured on protein A, 3.12-800 nM huZIP12-ECD-GST
Procedure: as §1, §2

[5] = molecular target: T3, LIN15 37-51 SEQ ID No: 226; test: peptide-array ELISA on mimics of the human ZIP12 ECD (peroxidase conjugate, ABTS, CCD read-out); antibody concentration of this value not given
T3 peptide: RGSSGQPADLLQVLS
Procedure: (§3) The binding of antibody to each of the synthesized peptides was tested in a peptide-based ELISA. The peptide arrays were incubated with primary antibody solution (overnight at 4° C.). After washing, the peptide arrays were incubated with a 1/1000 dilution of an appropriate antibody peroxidase conjugate for one hour at 25° C. After washing, the peroxidase substrate 2,2′-azino-di-3-ethylbenzthiazoline sulfonate (ABTS) and […] of 3 percent H2O2 were added. After one hour, the colour development was measured. The colour development was quantified with a charge coupled device—camera and an image processing system.

[6] = molecular target: T4, HEL19 33-51 SEQ ID No: 243; test: as above
T4 construct: alpha-helical mimic
T4 peptide: CDSRCRGSSGQPADLLQVL
Procedure: as §3

[7] = molecular target: T5, LIN15 36-50 SEQ ID No: 225; test: as above
T5 peptide: SRGSSGQPADLLQVL
Procedure: as §3

[8] = molecular target: T6, LOOP15 36-50 SEQ ID No: 239; test: as above
T6 construct: constrained mimic
T6 peptide: CSRGSSGQPADLLQC
Procedure: as §3

[9] = molecular target: T7, BETA22 32-53 SEQ ID No: 249 (not fully specified); test: as above
T7 construct: beta-turn mimic
T7 peptide: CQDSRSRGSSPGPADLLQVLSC
Procedure: as §3

huZIP12-ECD-GST [10] = molecular target: T1, huZIP12-ECD-GST; test: SPR single cycle kinetics (Biacore): mAb captured on protein A, huZIP12-ECD-GST injected at 2.34-600 nM, extended dissociation
Procedure: as §1
A selection of the higher affinity antibody variants were re-tested at a lower concentration series with an extended dissociation time with the objective of obtaining a better assessment of the binding kinetics. Referring now to FIG. 7, there are shown the data for the monoclonal antibodies that were re-tested to optimise the binding kinetic data. Once again, three antibody variants, H3_W99H_L1, H3_W99HL2 and H3_W99H_VL-par, all appear to have a higher affinity than the parent antibody. The on-rate (ka), off-rate (kd) and overall affinity measurement (KD) are all improved compared to the 51B12 VH_VL_par parent antibody.

[11] = molecular target: T2, cynomolgus monkey ZIP12-ECD-GST; test: SPR single cycle kinetics, mAb captured on protein A, ZIP12-ECD-GST injected; cynomolgus monkey ZIP12-ECD-GST; Example 8 cross-species SCK (FIG. 12 average)
Description: as §1, with “Surface plasmon resonance (SPR) is a label free biophysical technique that allows the direct measurement of biomolecular interactions. A single cycle kinetics (SCK) SPR direct binding assay was developed to characterise antibody binding to human, cyno, pig and canine ZIP12 fusion proteins. This assay was used to characterise the binding kinetics of the monoclonal antibody, 51B12 W99H_L1 against each of the four proteins (defined by kon, koff, KD). Single” for “Single”, “of ZIP12-ECD-GST” for “of huZIP12-ECD-GST”

huZIP12-ECD-GST [12] = molecular target: T1, huZIP12-ECD-GST; test: SPR single cycle kinetics, mAb captured on protein A, ZIP12-ECD-GST injected; human ZIP12-ECD-GST; Example 8 cross-species SCK (FIG. 12 average)
Description: as §1, with “Surface plasmon resonance (SPR) is a label free biophysical technique that allows the direct measurement of biomolecular interactions. A single cycle kinetics (SCK) SPR direct binding assay was developed to characterise antibody binding to human, cyno, pig and canine ZIP12 fusion proteins. This assay was used to characterise the binding kinetics of the monoclonal antibody, 51B12 W99H_L1 against each of the four proteins (defined by kon, koff, KD). Single” for “Single”, “of ZIP12-ECD-GST” for “of huZIP12-ECD-GST”

T1 sequence (Q504Y0 24-202): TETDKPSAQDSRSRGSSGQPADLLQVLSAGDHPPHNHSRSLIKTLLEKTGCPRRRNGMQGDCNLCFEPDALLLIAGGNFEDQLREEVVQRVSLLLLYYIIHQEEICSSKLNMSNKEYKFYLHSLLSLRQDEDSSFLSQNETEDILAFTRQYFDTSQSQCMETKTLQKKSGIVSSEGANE

- koff (huZIP12-ECD-GST [1]): 0.000261 s⁻¹
- kon (huZIP12-ECD-GST [1]): 64900 M⁻¹ s⁻¹
- koff [2]: 0.000218 s⁻¹
- kon [2]: 34600 M⁻¹ s⁻¹
- Kd (huZIP12-ECD-GST [3]): 0.533 nM
- koff (huZIP12-ECD-GST [3]): 4.98e-05 s⁻¹
- kon (huZIP12-ECD-GST [3]): 93400 M⁻¹ s⁻¹
- Kd (huZIP12-ECD-GST [4]): ~0.5 nM
- value [5]: 2570
- value [6]: 2610
- value [7]: 2650
- value [8]: 976
- value [9]: 1350
- Kd (huZIP12-ECD-GST [10]): 0.314 nM
- koff (huZIP12-ECD-GST [10]): 3.14e-05 s⁻¹
- kon (huZIP12-ECD-GST [10]): 99900 M⁻¹ s⁻¹
- Kd [11]: 6.31 nM
- Kd (huZIP12-ECD-GST [12]): 4.02 nM
B1: H3_W99H_L1 (antibody, V domains shown)
VH: QVQLVESGGGVVQPGRSLRLSCAASGFTFSDYGMHWVRQAPGKGLEWVAYISSGGTTIYYADTVKGRFTISRDNSKNTLYLQMNSLRAEDTAVYYCARHTNLYAMDYWGQGTTVTVSS
VL: DIVLTQSPDSLAVSLGERATINCRASKSVSTQGYSYMHWYQQKPGQPPKFLIYLASNLESGVPDRFSGSGSGTDFTLTISSLQAEDVAVYYCQHSREVPYTFGGGTKVEIKR
notes: Fc null human IgG1 / human kappa
